38 molecules from patent US20160368965A1 (IMMATICS BIOTECHNOLOGIES, published 2016) can be followed below.

The assay concerns the target T1, HLA-A*02:01 (human).
T1 construct: the tested peptide takes its place; also called peptide-receptive MHC molecules; MHC class I
As to the kind of experiment: UV-ligand exchange, anti-β2m ELISA; grade of peptide exchange yield. Put shortly:
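Yield was graded by sandwich ELISA: streptavidin-captured complexes, diluted 100-fold, were probed with HRP-conjugated anti-β2m, developed with TMB and read at 450 nm versus refolded monomer standards of 15-500 ng/ml. Complexes arose by UV-triggered replacement of a UV-sensitive peptide with the test peptide.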
Consider YLTNEGIAHL [YLTNEGIAHL (SEQ ID NO: 92)], for which the peptide exchange yield is ≥ 75%.
The value for VVYEGQLISI [VVYEGQLISI (SEQ ID NO: 79)] was 50 to 75%; that for ALVEENGIFEL [ALVEENGIFEL (SEQ ID NO: 101)] was 50 to 75%.
The same measure for FLSDGTIISV [FLSDGTIISV (SEQ ID NO: 85)]: ≥ 75%.
The same measure for RLFPGSSFL [RLFPGSSFL (SEQ ID NO: 77)]: ≥ 75%; for ALFGAGPASI [ALFGAGPASI (SEQ ID NO: 100)]: 50 to 75%.
In turn, VLFSGSLRL [VLFSGSLRL (SEQ ID NO: 69)] displayed a peptide exchange yield of 50 to 75%.
The same measure for VLGVIWGV [VLGVIWGV (SEQ ID NO: 70)]: ≥ 75%.
The same measure for VLLPEGGITAI [VLLPEGGITAI (SEQ ID NO: 71)]: 50 to 75%.
The value for YIDKDLEYV [YIDKDLEYV (SEQ ID NO: 74)] was 50 to 75%; that for GLLPALVAL [GLLPALVAL (SEQ ID NO: 87)] was 50 to 75%.
On to ALYPGTDYTV [ALYPGTDYTV (SEQ ID NO: 102)], for which the peptide exchange yield is 50 to 75%.
In turn, ALADDDFLTV [ALADDDFLTV (SEQ ID NO: 95)] returned a peptide exchange yield of 50 to 75%.
The value for KLLTPITTL [KLLTPITTL (SEQ ID NO: 90)] was 50 to 75%; that for VLFDVTGQV [VLFDVTGQV (SEQ ID NO: 68)] was 50 to 75%; that for VVYDDSTGLIRL [VVYDDSTGLIRL (SEQ ID NO: 81)] was 50 to 75%.
With FILPIGATV [FILPIGATV (SEQ ID NO: 84)], the peptide exchange yield is ≥ 75%.
The same measure for ALIAEGIAL [ALIAEGIAL (SEQ ID NO: 82)]: 50 to 75%.
The value for ALDDMISTL [ALDDMISTL (SEQ ID NO: 97)] was 50 to 75%; that for ALESFLKQV [ALESFLKQV (SEQ ID NO: 99)] was 50 to 75%.
The value for SIDSEPALV [SIDSEPALV (SEQ ID NO: 93)] was 50 to 75%.
GLGDFIFYSV [GLGDFIFYSV (SEQ ID NO: 86)]: the peptide exchange yield is ≥ 75%.
On to VIWGTDVNV [VIWGTDVNV (SEQ ID NO: 67)], for which the peptide exchange yield is ≥ 75%.
Take IIDDTIFNL [IIDDTIFNL (SEQ ID NO: 88)]: the peptide exchange yield lay in the range of 50 to 75%.
As to ALSKEIYVI [ALSKEIYVI (SEQ ID NO: 83)], the peptide exchange yield fell in the range of 50 to 75%.
The value for LLFNDVQTL [LLFNDVQTL (SEQ ID NO: 91)] was 50 to 75%.
The same measure for LLPGTEYVVSV [LLPGTEYVVSV (SEQ ID NO: 80)]: 50 to 75%; for AVAAVLTQV [AVAAVLTQV (SEQ ID NO: 103)]: 50 to 75%.
The same measure for KLADIQIEQL [KLADIQIEQL (SEQ ID NO: 89)]: 50 to 75%; for VMASPGGLSAV [VMASPGGLSAV (SEQ ID NO: 72)]: 50 to 75%.
Regarding ALAPATGGGSLLL [ALAPATGGGSLLL (SEQ ID NO: 96)], the peptide exchange yield was in the range of 50 to 75%.
The same measure for ALDQKVRSV [ALDQKVRSV (SEQ ID NO: 98)]: 20 to 50%; for ALYTGSALDFV [ALYTGSALDFV (SEQ ID NO: 8)]: 50 to 75%.
The same measure for VMVDGKPVNL [VMVDGKPVNL (SEQ ID NO: 73)]: ≥ 75%; for QIIDAINKV [QIIDAINKV (SEQ ID NO: 9)]: 20 to 50%; for SLQDTEEKSRS [SLQDTEEKSRS (SEQ ID NO: 78)]: 50 to 75%.
The same measure for VMMEEFVQL [VMMEEFVQL (SEQ ID NO: 94)]: 50 to 75%.
Turning to ALVDIVRSL [ALVDIVRSL (SEQ ID NO: 7)], the peptide exchange yield lay in the range of 50 to 75%.
